Source: patent publication US20240261333A1 (published 2024)

Columns and labels:
Test in all cases: co-IP, anti-FLAG, lysate of cells with N-FLAG B3GNT2; mass spectrometry
HADHB = target: T1, HADHB (human, UniProt P55084 34-474)
T1 construct: also called NP_000174.1 (+3)
T1 sequence (looked up): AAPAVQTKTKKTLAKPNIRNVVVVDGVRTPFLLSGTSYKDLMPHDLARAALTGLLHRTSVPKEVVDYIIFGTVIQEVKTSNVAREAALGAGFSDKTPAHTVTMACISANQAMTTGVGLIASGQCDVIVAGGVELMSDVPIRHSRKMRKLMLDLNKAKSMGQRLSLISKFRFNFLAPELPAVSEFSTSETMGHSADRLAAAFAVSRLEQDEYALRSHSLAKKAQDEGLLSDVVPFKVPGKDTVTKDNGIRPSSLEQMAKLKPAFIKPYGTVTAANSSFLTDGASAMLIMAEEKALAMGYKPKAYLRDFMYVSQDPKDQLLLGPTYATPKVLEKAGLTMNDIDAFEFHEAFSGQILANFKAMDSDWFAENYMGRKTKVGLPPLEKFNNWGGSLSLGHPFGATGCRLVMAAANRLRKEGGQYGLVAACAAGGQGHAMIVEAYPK
Procedure: (§1) Cells were plated in 10-cm cell culture dishes and grown to 60-80% confluency. For each condition, two biological replicates were harvested for co-IP. Cells were washed with PBS and 4 mL of lysis buffer (20 mM HEPES, 1% Triton X-100, 150 mM NaCl, 1 mM EDTA, and 10% glycerol) containing protease inhibitor cocktail was added. Cells were scraped and lysate was incubated at 4° C. under rotary agitation for 1 h. Lysate was centrifuged at 14,000×g for 10 min at 4° C. Supernatant was transferred to a new tube and an aliquot was taken as the input. […] For Western blots, 10 μg/mL Chicken Anti-FLAG (Aves labs ET-DY100) and IgY control (R&D Systems AB-101-C) antibodies were biotinylated (Thermo Fisher Scientific 90407) and added to the respective conditions. Lysates with antibodies were incubated at 4° C. under rotary agitation overnight. For each mL of lysate, 50 μL of Pierce Protein A/G Magnetic Beads (Mass spectrometry; Thermo Fisher Scientific 88803) or Pierce Streptavidin Magnetic Beads (Western blot; Thermo Fisher Scientific 88817) was washed twice with lysis buffer. Lysates with antibodies were added to the beads and incubated at 4° C. under rotary agitation for 4 h. Beads were washed with lysis buffer 3 times and resuspended in lysis buffer for storage.
(§2) Magnetic beads were resuspended in 100 mM Tris pH 7.8, reduced, alkylated and digested with trypsin at 37° ° C. overnight. This solution was subjected to solid phase extraction to concentrate the peptides and remove unwanted reagents followed by injection onto a Shimadzu HPLC with fraction collector. Eight fractions were collected and after concentration were injected on a Waters NanoAcquity HPLC equipped with a self-packed Aeris 3 μm C18 analytical column 0.075 mm by 20 cm, (Phenomenex). Peptides were eluted using standard reverse-phase gradients. The effluent from the column was analyzed using a Thermo Orbitrap Elite mass spectrometer (nanospray configuration) operated in a data dependent manner for 54 minutes. The resulting fragmentation spectra were correlated against the known database using Proteome Discover 1.4 (Thermo Fisher Scientific).

SERBP1 = target: T2, SERBP1 (human, UniProt Q8NC51 2-408)
T2 construct: also called NP_001018077.1 (+1)
T2 sequence (looked up): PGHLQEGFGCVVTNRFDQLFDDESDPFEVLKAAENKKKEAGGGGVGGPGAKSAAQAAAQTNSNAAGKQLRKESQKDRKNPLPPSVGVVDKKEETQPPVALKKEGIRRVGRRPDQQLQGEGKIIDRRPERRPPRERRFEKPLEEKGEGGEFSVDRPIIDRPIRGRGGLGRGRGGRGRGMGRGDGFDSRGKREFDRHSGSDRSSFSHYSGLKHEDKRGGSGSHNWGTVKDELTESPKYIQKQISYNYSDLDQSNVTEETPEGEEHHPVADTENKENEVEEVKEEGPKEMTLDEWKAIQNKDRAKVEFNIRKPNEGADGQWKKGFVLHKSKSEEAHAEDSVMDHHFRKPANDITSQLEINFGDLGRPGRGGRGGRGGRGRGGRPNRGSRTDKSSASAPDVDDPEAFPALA
Procedure: as §1, §2

KRT4 = target: T3, KRT4 (human, UniProt P19013 1-520)
T3 construct: also called NP_002263.3
Procedure: as §1, §2

PARP1 = target: T4, PARP1 (human, UniProt P09874 2-1014)
T4 construct: also called NP_001609.2
Procedure: as §1, §2

RPL10 = RPL10 (human, UniProt P27635 2-214)
Procedure: as §1, §2

FUBP3 = target: T5, FUBP3 (human, UniProt Q96I24 2-572)
T5 construct: also called NP_003925.1 (+2)
T5 sequence (looked up): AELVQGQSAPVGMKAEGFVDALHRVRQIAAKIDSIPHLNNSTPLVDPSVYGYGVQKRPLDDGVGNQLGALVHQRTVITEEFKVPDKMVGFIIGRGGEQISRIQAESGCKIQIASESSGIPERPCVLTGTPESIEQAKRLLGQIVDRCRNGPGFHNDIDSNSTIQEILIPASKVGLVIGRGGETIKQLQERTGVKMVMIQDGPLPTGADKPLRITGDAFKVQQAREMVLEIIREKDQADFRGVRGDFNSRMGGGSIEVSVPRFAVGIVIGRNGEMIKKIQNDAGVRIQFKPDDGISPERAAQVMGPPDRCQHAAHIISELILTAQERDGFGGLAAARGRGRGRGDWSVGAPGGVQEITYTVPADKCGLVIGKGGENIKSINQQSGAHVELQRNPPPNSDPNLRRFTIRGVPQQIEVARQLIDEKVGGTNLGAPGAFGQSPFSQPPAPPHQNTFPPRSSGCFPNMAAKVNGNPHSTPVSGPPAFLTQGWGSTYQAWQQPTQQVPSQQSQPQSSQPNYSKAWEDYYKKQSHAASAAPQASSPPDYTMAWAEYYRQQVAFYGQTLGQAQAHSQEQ
Procedure: as §1, §2

SPTAN1 = target: T6, SPTAN1 (human, UniProt Q13813-2 1-2477, limits assumed)
T6 construct: also called NP_001123910.1 (+10)
Procedure: as §1, §2

T4 sequence (P09874 2-1014 limits assumed): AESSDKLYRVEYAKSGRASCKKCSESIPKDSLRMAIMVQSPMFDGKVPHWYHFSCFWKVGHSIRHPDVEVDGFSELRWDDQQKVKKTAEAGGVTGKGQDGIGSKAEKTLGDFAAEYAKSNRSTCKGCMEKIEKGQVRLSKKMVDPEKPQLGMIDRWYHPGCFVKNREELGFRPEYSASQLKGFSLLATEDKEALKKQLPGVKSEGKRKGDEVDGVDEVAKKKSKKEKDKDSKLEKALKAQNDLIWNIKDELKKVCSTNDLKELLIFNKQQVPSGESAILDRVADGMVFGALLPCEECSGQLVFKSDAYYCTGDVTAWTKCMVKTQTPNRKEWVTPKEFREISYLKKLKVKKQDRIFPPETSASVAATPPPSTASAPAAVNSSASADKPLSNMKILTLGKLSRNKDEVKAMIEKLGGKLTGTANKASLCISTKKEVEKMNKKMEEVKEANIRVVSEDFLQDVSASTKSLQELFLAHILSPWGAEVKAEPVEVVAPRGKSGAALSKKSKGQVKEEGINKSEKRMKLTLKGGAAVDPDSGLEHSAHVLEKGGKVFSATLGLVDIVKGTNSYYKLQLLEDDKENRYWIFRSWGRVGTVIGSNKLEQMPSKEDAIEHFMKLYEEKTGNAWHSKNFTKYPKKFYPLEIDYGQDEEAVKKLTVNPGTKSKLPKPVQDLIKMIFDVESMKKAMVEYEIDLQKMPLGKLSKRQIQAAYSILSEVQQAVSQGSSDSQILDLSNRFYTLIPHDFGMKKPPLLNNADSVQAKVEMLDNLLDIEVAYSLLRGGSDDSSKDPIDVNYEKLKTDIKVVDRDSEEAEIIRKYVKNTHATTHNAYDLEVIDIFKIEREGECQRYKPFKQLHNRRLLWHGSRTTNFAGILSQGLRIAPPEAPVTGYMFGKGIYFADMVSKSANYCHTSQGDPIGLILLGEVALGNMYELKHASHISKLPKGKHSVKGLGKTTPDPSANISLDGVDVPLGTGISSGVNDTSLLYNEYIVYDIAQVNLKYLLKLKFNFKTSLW
T3 sequence (P19013 whole entry): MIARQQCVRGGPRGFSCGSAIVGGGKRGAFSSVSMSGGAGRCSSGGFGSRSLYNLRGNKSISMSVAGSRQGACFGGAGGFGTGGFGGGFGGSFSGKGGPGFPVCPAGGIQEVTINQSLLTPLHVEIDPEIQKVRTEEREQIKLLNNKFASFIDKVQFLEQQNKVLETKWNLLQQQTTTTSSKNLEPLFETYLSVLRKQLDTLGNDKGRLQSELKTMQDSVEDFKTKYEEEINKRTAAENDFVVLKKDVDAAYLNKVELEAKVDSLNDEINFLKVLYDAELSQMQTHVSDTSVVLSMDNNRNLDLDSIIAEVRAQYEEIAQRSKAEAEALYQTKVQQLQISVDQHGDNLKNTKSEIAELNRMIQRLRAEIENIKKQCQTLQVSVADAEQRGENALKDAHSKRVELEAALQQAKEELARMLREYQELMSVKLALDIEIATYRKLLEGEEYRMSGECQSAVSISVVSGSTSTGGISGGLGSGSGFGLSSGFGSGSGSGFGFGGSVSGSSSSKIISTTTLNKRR

B1: N-terminal FLAG tagged B3GNT2 (enzyme, human, UniProt Q9NY97 1-397, looked up)
chain: MSVGRRRIKLLGILMMANVFIYFIMEVSKSSSQEKNGKGEVIIPKEKFWKISTPPEAYWNREQEKLNRQYNPILSMLTNQTGEAGRLSNISHLNYCEPDLRVTSVVTGFNNLPDRFKDFLLYLRCRNYSLLIDQPDKCAKKPFLLLAIKSLTPHFARRQAIRESWGQESNAGNQTVVRVFLLGQTPPEDNHPDLSDMLKFESEKHQDILMWNYRDTFFNLSLKEVLFLRWVSTSCPDTEFVFKGDDDVFVNTHHILNYLNSLSKTKAKDLFIGDVIHNAGPHRDKKLKYYIPEVVYSGLYPPYAGGGGFLYSGHLALRLYHITDQVHLYPIDDVYTGMCLQKLGLVPEKHKGFRTFDIEEKNKNNICSYVDLMLVHSRKPQEMIDIWSQLQSAHLKC
notes: Overexpressed in cells and pulled down from the lysate with mouse anti-FLAG antibody; also called N-FLAG B3GNT2; N-term FLAG; not shown: N-terminal FLAG tag
For B1, which “co-IP mass spectrometry count” value (HADHB) is on record?
Its value is 0.

And the “co-IP mass spectrometry count” value (SERBP1)?
Its value is 0.

And the “co-IP mass spectrometry count” value (KRT4)?
Its value is 22.

And the “co-IP mass spectrometry count” value (PARP1)?
Its value is 0.

What about the “co-IP mass spectrometry count” value (RPL10) of the same binder?
The value was 4.

And the “co-IP mass spectrometry count” value (FUBP3)?
The value was 8.

And the “co-IP mass spectrometry count” value (SPTAN1)?
The value was 0.
